Assay results from paper PMC6102255, “EPO does not promote interaction between the erythropoietin and beta-common receptors” (Scientific Reports, 2018).
Values belong to the molecule of their own block, whether it stands above or below them.

Experiments:
[1] = target: extracellular domains of the erythropoietin receptor (EPOR), in-house purified (UniProt P19235); test: MST; EPOR labelled with DyLight 650 (30 nM), unlabelled EPOR titrated (0.05-1700 nM); 50 mM Tris, 10 mM MgCl2, 150 mM NaCl, 0.05% Tween 20, pH 7.5; 60% laser power; homodimer to monomers, no EPO
[2] = target: the molecule itself; test: AUC; sedimentation velocity, 20 °C, 50,000 rpm, 10 mM HEPES, 500 mM NaCl pH 7.2; single proteins (EPO 3 μM; EPOR 1.5, 3, 6 μM; βc 0.75, 1.5, 3 μM) and mixtures of two (EPO + EPOR; βc + EPOR)

Kd [1]: 166 nM
Molecule: extracellular domains of the erythropoietin receptor (EPOR), in-house purified (from UniProt P19235 25-250) (domain or fragment)

B1: extracellular regions of the beta-common (βc) receptor, in-house purified (domain or fragment, UniProt P32927 17-443, looked up)
chain: WERSLAGAEETIPLQTLRCYNDYTSHITCRWADTQDAQRLVNVTLIRRVNEDLLEPVSCDLSDDMPWSACPHPRCVPRRCVIPCQSFVVTDVDYFSFQPDRPLGTRLTVTLTQHVQPPEPRDLQISTDQDHFLLTWSVALGSPQSHWLSPGDLEFEVVYKRLQDSWEDAAILLSNTSQATLGPEHLMPSSTYVARVRTRLAPGSRLSGRPSKWSPEVCWDSQPGDEAQPQNLECFFDGAAVLSCSWEVRKEVASSVSFGLFYKPSPDAGEEECSPVLREGLGSLHTRHHCQIPVPDPATHGQYIVSVQPRRAEKHIKSSVNIQMAPPSLNVTKDGDSYSLRWETMKMRYEHIDHTFEIQYRKDTATWKDSKTETLQNAHSMALPALEPSTRYWARVRVRTSRTGYNGIWSEWSEARSWDTESVLPMW
modifications: biotin (EZ link sulfo-NHS biotin) when immobilised in SPR; unmodified otherwise
notes: beta common receptor (βc, shared subunit of the GM-CSF, IL-3 and IL-5 receptors), extracellular regions; Used in SEC, MST, SPR and AUC; Plasmid donated by Dr. Timothy Hercus; purification details are in the Supplementary data; also called βc homodimer; CD131
stoichiometry N [2]: 2
